{"source": "paper doi:10.1101/2021.08.25.457680", "key": {"[1]": {"target": "hDLG1 PDZ1+2 tandem (human) (UniProt Q12959)", "assay": "NMR titration"}, "[2]": {"target": "hDLG1 PDZ1 domain (human)", "sequence (Q12959 219-551)": "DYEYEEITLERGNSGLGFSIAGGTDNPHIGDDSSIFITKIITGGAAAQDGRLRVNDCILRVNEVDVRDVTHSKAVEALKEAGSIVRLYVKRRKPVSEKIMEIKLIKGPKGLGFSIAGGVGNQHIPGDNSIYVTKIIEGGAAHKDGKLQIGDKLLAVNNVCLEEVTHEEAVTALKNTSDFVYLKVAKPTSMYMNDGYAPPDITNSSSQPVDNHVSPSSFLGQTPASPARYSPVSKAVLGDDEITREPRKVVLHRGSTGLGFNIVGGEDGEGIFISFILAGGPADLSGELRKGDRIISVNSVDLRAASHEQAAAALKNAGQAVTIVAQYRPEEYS", "assay": "NMR titration"}, "[3]": {"target": "hDLG1 PDZ2 domain (human)", "sequence (Q12959 219-551)": "as above", "assay": "ITC"}, "[4]": {"target": "hDLG1 PDZ1 domain (human)", "assay": "ITC"}, "[5]": {"target": "syntenin-1 PDZ1 domain (human)", "sequence (O00560 whole entry, the tested form may be a part)": "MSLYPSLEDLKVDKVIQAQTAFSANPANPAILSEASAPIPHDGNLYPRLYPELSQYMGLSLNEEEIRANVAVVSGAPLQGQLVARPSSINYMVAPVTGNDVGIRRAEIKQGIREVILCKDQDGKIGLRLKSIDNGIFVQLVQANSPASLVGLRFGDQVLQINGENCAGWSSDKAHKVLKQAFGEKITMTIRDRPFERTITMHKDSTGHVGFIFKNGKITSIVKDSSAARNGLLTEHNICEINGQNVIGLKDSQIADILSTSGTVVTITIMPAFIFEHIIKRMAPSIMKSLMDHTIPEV", "assay": "NMR titration"}, "[6]": {"target": "syntenin-1 PDZ2 domain (human)", "sequence (O00560 whole entry, the tested form may be a part)": "as above", "assay": "NMR titration"}}, "note": "Where no end group is shown, it is not given here.", "data": [{"molecule": "Tax2 10mer peptide (last 10 amino acids of Tax-2)", "values": [{"measurement": "Kd", "setting": "[1]", "value": "> 5000", "unit": "µM"}]}, {"molecule": "SEKHFRETEV (not fully specified (C-terminus))", "note": "[C-terminally amidated Tax-1 10mer peptide (Tax-1mod)]", "values": [{"measurement": "Kd", "setting": "[2]", "value": 951, "unit": "µM"}]}, {"molecule": "SEKHFRETEV", "note": "[Tax-1 10mer peptide (last 10 C-terminal amino acids of Tax-1)]", "values": [{"measurement": "Kd", "setting": "[3]", "value": 0.9, "unit": "µM"}, {"measurement": "dH", "setting": "[3]", "value": -10.4, "unit": "kcal/mol"}, {"measurement": "stoichiometry N", "setting": "[3]", "value": 0.99}, {"measurement": "Kd", "setting": "[4]", "value": 2.7, "unit": "µM"}, {"measurement": "dH", "setting": "[4]", "value": -8, "unit": "kcal/mol"}, {"measurement": "stoichiometry N", "setting": "[4]", "value": 1.03}, {"measurement": "Kd", "setting": "[5]", "value": 2580, "unit": "µM"}, {"measurement": "Kd", "setting": "[6]", "value": 1550, "unit": "µM"}]}]}
